Measurements reported in patent US20260265358A1 (BYOMASS, published 2026).
Residue numbers refer to the chain shown, from its start. Several values for one entry are separate records, joined by “and”; a condition that tells them apart may be missing. Equal entries are not always repeated. Values belong to the binder of their own block, whether it stands above or below them.

Key:
Human Activin A Fc = biological target: T1, Human Activin A Fc (human, UniProt P03970 309-424 (pig entry)); test: Octet BLI, Fab, monovalent
T1 construct: also called human Activin A-Fc fusion; human Activin A-Fc antigen; not shown: Fc part
T1 sequence: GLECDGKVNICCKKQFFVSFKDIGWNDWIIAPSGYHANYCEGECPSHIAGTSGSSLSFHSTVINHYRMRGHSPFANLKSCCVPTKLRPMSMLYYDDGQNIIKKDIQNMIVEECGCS

[1] = biological target: T2, biotinylated Human Activin A (human, UniProt P03970 309-424 (pig entry), biotinylated (EZ-Link Sulfo-NHS-Biotinylation Kit)); test: SPR (Biacore 8K), antigen captured, Fab analyte
T2 sequence: T1 sequence
Protocol: Kinetic analysis was conducted at 25° C. in HBS-EP+ running buffer (10 mM HEPES pH 7.4, 150 mM NaCl, 3 mM EDTA, 0.05% Surfactant P20) using a Biacore 8K optical biosensor (Cytiva, Marlborough, MA). The sample compartment was maintained at 10° C. for the duration of the experiment. The Biacore 8K can analyze up to 8 separate interactions in a single cycle.
Each experiment cycle began with an injection (300 s at 2 μL/min) overflow cells 1 and 2 of a 1:100 solution of biotin CAPture reagent (Cytiva) in running buffer. This was followed by an injection (45 s at 10.0 μL/min) of biotinylated human ACTIVIN A (5 nM) overflow cell 2. Upon capture of ACTIVIN A to the sensor surface, a single concentration of Fab ranging from 0.111-81.0 nM was injected (300 s at 30 μL/min) overflow cells 1 and 2. The dissociation of the antibodies were monitored for 3420 s. Finally, an injection (120 s at 10 μL/min) of regeneration solution (6 M Guanidine-HCl in 0.25 M NaOH) overflow cells 1 and 2 prepared the sensor surface for another cycle. Several blank buffer samples were injected (300 s at 30 μL/min) overflow cells 1 and 2 throughout the duration of the experiment and used for reference surface subtraction—each were monitored for the same amount of dissociation time (3420 s) and regenerated under the same conditions as those for the Fab sample injections.
The anti-Activin antibodies identified in Example 1 were characterized. First, binding kinetics of the anti-Activin antibodies was assessed with a Surface Plasmon Resonance assay (Biacore).

Kd (Human Activin A Fc): 1530 pM
B1: Fab of anti-Activin A antibody Clone P (Fab, V domains shown)
VH: QVQLVQSGAEVKKPGSSVKVSCKASGGTFDDYAISWVRQAPGQGLEWMGGIIPRFGIANYAQKFQGRVTITADESTSTAYMELSSLRSEDTAVYYCARPPSSGSDWGQGTLVTVSS
VL: DIQMTQSPSSVSASVGDRVTITCRASQGIDSWLAWYQQKPGKAPKLLIYAASSLQSGVPSRFSGSGSGTDFTLTISSLQPEDFATYYCQQVHSFPITFGGGTKVEIK
notes: Fab format; only VH and VL are tied to the clone; also called Clone P Fab

Kd (Human Activin A Fc): 4530 pM
B2: Fab of anti-Activin A antibody Clone M (Fab, V domains shown)
VH: QLQLQESGPGLVKPSETLSLTCTVSGGSISSSDYYWGWIRQPPGKGLEWIGSIYYPANTYYNPSLKSRVTISVDTSKNQFSLKLSSVTAADTAVYYCARGYWNYGMDVWGQGTTVTVSS
VL: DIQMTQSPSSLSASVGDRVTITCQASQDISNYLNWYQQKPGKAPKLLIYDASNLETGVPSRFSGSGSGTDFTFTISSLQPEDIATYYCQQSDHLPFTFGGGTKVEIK
notes: Fab format; only VH and VL are tied to the clone; also called Clone M Fab

Kd (Human Activin A Fc): 4850 pM
B3: Fab of anti-Activin A antibody Clone N (Fab, V domains shown)
VH: B2 VH with N58S
VL: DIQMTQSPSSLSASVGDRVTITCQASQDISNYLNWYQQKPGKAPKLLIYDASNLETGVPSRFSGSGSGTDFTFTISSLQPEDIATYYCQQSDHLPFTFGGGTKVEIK
notes: Fab format; only VH and VL are tied to the clone; also called Clone N Fab

Kd [1]: 240 pM
koff [1]: 0.000175 s⁻¹
kon [1]: 728000 M⁻¹ s⁻¹
Kd (Human Activin A Fc): 1750 pM
B4: Fab of anti-Activin A antibody Clone Q (Fab, V domains shown)
VH: QVQLVQSGAEVKKPGSSVKVSCKASGGSFSPYTWSWVRQAPGQGLEWMGGIIPISGTANTAQKFQGRVTITADESTSTAYMELSSLRSEDTAVYYCARGGPLSGWRASYYYWGQGTLVTVSS
VL: not shown
notes: Fab format; only VH and VL are tied to the clone; also called Clone Q Fab

Kd (Human Activin A Fc): 2900 pM
B5: Fab of anti-Activin A antibody Clone R (Fab, V domains shown)
VH: B4 VH with W34I, P53L, I54T, T60Y
VL: not shown
notes: Fab format; only VH and VL are tied to the clone; also called Clone R Fab

Kd [1]: 33.4 pM and 17.9 pM
koff [1]: 4.52e-05 s⁻¹ and 2.74e-05 s⁻¹
Kd (Human Activin A Fc): 229 pM
B6: Fab of anti-Activin A antibody Clone C (Fab, V domains shown)
VH: QVQLVQSGAEVKKPGASVKVSCKASGYTFPGYHMHWVRQAPGQGLEWMGVINPSSGDTNYAQKFQGRVTMTRDTSISTAYMELSRLRSDDTAVYYCARARDIAALGLGAFDYWGQGTLVTVSS
VL: EIVLTQSPGTLSLSPGERATLSCRASQSVSSSYLAWYQQKPGQAPRLLIYGASSRAGGIPDRFSGSGSGTDFTLTISRLEPEDFAVYYCQQYVAYPRTFGGGTKVEIK
notes: Fab format; only VH and VL are tied to the clone; also called Fab of Clone C

Kd (Human Activin A Fc): 2020 pM
B7: Fab of anti-Activin A antibody Clone A (Fab, V domains shown)
VH: B6 VH with P30T, H33Y, V50S, D57G, R72T, I76T, S84R, R85S, L105A
VL: B6 VL with S30R, G57T, A94S
notes: Fab format; only VH and VL are tied to the clone; also called Clone A Fab

Kd [1]: 84.9 pM
koff [1]: 0.000124 s⁻¹
kon [1]: 1.46e+06 M⁻¹ s⁻¹
Kd (Human Activin A Fc): 1090 pM
B8: Fab of anti-Activin A antibody Clone G (Fab, V domains shown)
VH: QVQLVQSGAEVKKPGASVKVSCKASGYTFTSYYIHWVRQAPGQGLEWMGAIYAYSGDTNYAQKLQGRVTMTTDTSTSTAYMELRSLRSDDTAVYYCARARDIAAAGLGAFDYWGQGTLVTVSS
VL: B6 VL with S30R, G57T, V93S, A94N
notes: Fab format; only VH and VL are tied to the clone; also called Clone G Fab

Kd [1]: 61.6 pM
koff [1]: 7.38e-05 s⁻¹
kon [1]: 1.2e+06 M⁻¹ s⁻¹
Kd (Human Activin A Fc): 857 pM
B9: Fab of anti-Activin A antibody Clone I (Fab, V domains shown)
VH: QVQLVQSGAEVKKPGSSVKVSCKASGGTFSNYAISWVRQAPGQGLEWMGYIIPFFGTANYAQKFQGRVTITADESTSTAYMELSSLRSEDTAVYYCARGGSGYSTSWGSSLYWGQGTLVTVSS
VL: B6 VL with S54Y, G57T, Q90L, Y92S, V93G, A94V, Y95F, R97Y
notes: Fab format; only VH and VL are tied to the clone; also called Clone I Fab

Kd [1]: 77.9 pM
koff [1]: 0.000174 s⁻¹
kon [1]: 2.23e+06 M⁻¹ s⁻¹
Kd (Human Activin A Fc): 790 pM
B10: Fab of anti-Activin A antibody Clone E (Fab, V domains shown)
VH: B6 VH with P30H, H33N, V50S, S54Y, D57Y, N59I, L105A
VL: B6 VL with S30R, G57T, A94S
notes: Fab format; only VH and VL are tied to the clone; also called Clone E Fab

Kd [1]: 960 pM
koff [1]: 0.000371 s⁻¹
kon [1]: 386000 M⁻¹ s⁻¹
Kd (Human Activin A Fc): 1860 pM
B11: Fab of anti-Activin A antibody Clone H (Fab, V domains shown)
VH: B8 VH with S31G, Y33H, A50H, Y52S, D57T
VL: B6 VL with S30R, G57T, V93S, A94N
notes: Fab format; only VH and VL are tied to the clone; also called Clone H Fab

Kd [1]: 118 pM
B12: Fab of anti-Activin A antibody Clone J (Fab, V domains shown)
VH: B9 VH with Q1E, N31L, Y50G, F54Y
VL: B6 VL with S53F, G57T, Y92S, V93G, A94V, Y95F, R97Y
notes: Fab format; only VH and VL are tied to the clone; also called Clone J Fab

Kd [1]: 9.86 pM and 8.13 pM
koff [1]: 3.02e-05 s⁻¹ and 2.16e-05 s⁻¹
kon [1]: 3.06e+06 M⁻¹ s⁻¹ and 2.66e+06 M⁻¹ s⁻¹
Kd (Human Activin A Fc): 538 pM
B13: Fab of anti-Activin A antibody Clone D (Fab, V domains shown)
VH: B6 VH with P30F, H33S
VL: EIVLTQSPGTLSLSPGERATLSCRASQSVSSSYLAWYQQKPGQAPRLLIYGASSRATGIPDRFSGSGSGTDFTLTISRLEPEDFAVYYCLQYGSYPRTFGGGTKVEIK
notes: Fab format; only VH and VL are tied to the clone; also called Fab of Clone D

Kd [1]: 43.1 pM
koff [1]: 7.26e-05 s⁻¹
kon [1]: 1.68e+06 M⁻¹ s⁻¹
Kd (Human Activin A Fc): 419 pM
B14: Fab of anti-Activin A antibody Clone F (Fab, V domains shown)
VH: B8 VH with S31G, Y33H, A40V, A50V, Y52S, A105L
VL: EIVLTQSPATLSVSPGERATLSCRASQSVSSNLAWYQQKPGQAPRLLIYGASDRATGIPARFSGSGSGTEFTLTISSLQSEDFAVYYCIQYSNYPRTFGGGTKVEIK
notes: Fab format; only VH and VL are tied to the clone; also called Clone F Fab

Kd (Human Activin A Fc): 1920 pM
B15: Fab of anti-Activin A antibody Clone O (Fab, V domains shown)
VH: QVQLVQSGAEVKKPGSSVKVSCKASGGTFSNYDINWVRQAPGQGLEWMGGIIPVFGTAAYAQKFQGRVTITADESTSTAYMELSSLRSEDTAVYYCAREARDGYRYAFQHWGQGTLVTVSS
VL: B14 VL with L4M, D53T, I89Q, S92N, Y94W, R96I
notes: Fab format; only VH and VL are tied to the clone; also called Clone O Fab

Kd (Human Activin A Fc): 4140 pM
B16: Fab of anti-Activin A antibody Clone L (Fab, V domains shown)
VH: QVQLQESGPGLVKPSETLSLTCAVSGYSISSGYYWGWIRQPPGKGLEWIGSIYHSGSTYYNPSLKSRVTISVDTSKNQFSLKLSSVTAADTAVYYCAREAGSGYWYLSVYGMDVWGQGTTVTVSS
VL: B14 VL with D53T, I89Q, Y91S, S92D, N93D, Y94W, R96W
notes: Fab format; only VH and VL are tied to the clone; also called Clone L Fab

Kd [1]: 36.7 pM
koff [1]: 0.000119 s⁻¹
kon [1]: 3.25e+06 M⁻¹ s⁻¹
Kd (Human Activin A Fc): 925 pM
B17: Fab of anti-Activin A antibody Clone K (Fab, V domains shown)
VH: QVQLVQSGAEVKKPGSSVKVSCKASGGTSSSYAISWVRQAPGQGLEWMGYIIPAFGTANYAQKFQGRVTITADESTSTAYMELSSLRSEDTAVYYCARPVRTYPLGKYFYHWGQGTLVTVSS
VL: EIVLTQSPATLSLSPGERATLSCRASQSVSSYLAWYQQKPGQAPRLLIYDASNRATGIPARFSGSGSGTDFTLTISSLEPEDFAVYYCQQDSIFPPYTFGGGTKVEIK
notes: Fab format; only VH and VL are tied to the clone; also called Clone K Fab
